Reference: patent publication US20170296650A1 (Novartis, published 2017)

What was measured:
[1] = molecular target: T1, hCMV gH + gL + UL128 + UL130 + UL131A (5-member complex; HEK293T co-transfectant) (hCMV, UniProt P12824 24-743; P16832 31-278; P16837 1-171; P16772 1-214); experiment: cell competition; competitor 8I21-biotin
T1 construct: whole, on cells; in the functional rows it stands for the complex on virions or transduced cells of the strain or isolate named in the readout; also called gH/gL/UL128-131A complex; pentameric complex

[2] = molecular target: T1, hCMV gH + gL + UL128 + UL130 + UL131A …; experiment: cell competition; competitor 2C12-biotin
[3] = molecular target: T1, hCMV gH + gL + UL128 + UL130 + UL131A …; experiment: cell competition; competitor 4I22-biotin
[4] = molecular target: T1, hCMV gH + gL + UL128 + UL130 + UL131A …; experiment: cell competition; competitor 2F4-biotin
[5] = molecular target: T1, hCMV gH + gL + UL128 + UL130 + UL131A …; experiment: cell competition; competitor 8J16-biotin
[6] = molecular target: T1, hCMV gH + gL + UL128 + UL130 + UL131A …; experiment: cell competition; competitor 5A2-biotin
[7] = molecular target: T1, hCMV gH + gL + UL128 + UL130 + UL131A …; experiment: cell-based or functional assay
[8] = molecular target: hCMV UL130 Q191K (virus selected with 4I22) (hCMV); experiment: cell-based or functional assay
[9] = molecular target: T1, hCMV gH + gL + UL128 + UL130 + UL131A …; experiment: cell-based or functional assay; remark: listed apart in the source
[10] = molecular target: hCMV UL130 W179R (virus selected with 4I22) (hCMV); experiment: cell-based or functional assay
[11] = molecular target: T2, hCMV UL130 + UL131A (HEK293T co-transfectant) (hCMV, UniProt P16772 1-214); experiment: cell-based or functional assay
[12] = molecular target: soluble 5-member complex (gH, gL, UL128, UL130, UL131A) (hCMV, UniProt P12824 24-716; P16832 31-278; P16837 28-171; P16772 26-214); experiment: Biacore SPR, soluble 5-member complex
[13] = molecular target: T1, hCMV gH + gL + UL128 + UL130 + UL131A …; experiment: cell-based or functional assay; remark: listed apart in the source
[14] = molecular target: T2, hCMV UL130 + UL131A (HEK293T …); experiment: cell-based or functional assay; remark: listed apart in the source
[15] = molecular target: T1, hCMV gH + gL + UL128 + UL130 + UL131A …; experiment: cell competition; competitor 10F7-biotin
[16] = molecular target: T1, hCMV gH + gL + UL128 + UL130 + UL131A …; experiment: cell competition; competitor 4N10-biotin
[17] = molecular target: T1, hCMV gH + gL + UL128 + UL130 + UL131A …; experiment: cell competition; competitor 1F11-biotin

B1: 4I22 (antibody, human IgG1, V domains shown)
VH: QVQLVESGGGVVQPGRSLRLSCVASGFTFSSYAMHWVRQAPGKGLEWVAVISYDGDNKFYADSVKGRFRISRDTSKNTLYLEMNSLRAADTAIYYCAREELVGLMPPYYNYGLDVWGQGTTVTVSS
VL: QSVLTQPPSVSAAPGQKVTISCSGSNSNIGNNYVSWYQQLPGRAPKLLIYDNDHRPSGIPDRFSGSKSGTSATLVITGLQTGDEADYYCETWDTSLSAAVVFGGGTKLTVL
notes: fully human IgG1 with unaltered Fc; also called 4I22-biotin; 4122
Inhibition of binding (%) [1]: 0% | Inhibition of binding (%) [2]: 0% | Inhibition of binding (%) [3]: 100% | Inhibition of binding (%) [4]: 100% | Inhibition of binding (%) [5]: 0% | Inhibition of binding (%) [6]: 0% | EC90 neutralization HUVEC, isolate TM-20749 [7]: 0.011 µg/mL | EC90 neutralization HUVEC, isolate TM-31354 [7]: 0.012 µg/mL | EC90 neutralization HUVEC, isolate TM-E5271 [7]: 0.001 µg/mL | EC90 neutralization HUVEC, isolate TM-E9361 [7]: 0.016 µg/mL | EC90 neutralization HUVEC, isolate TM-E14953 [7]: 0.012 µg/mL | EC90 neutralization HUVEC, isolate TM-E19664 [7]: 0.013 µg/mL | EC90 neutralization HUVEC, isolate TM-E20744 [7]: 0.02 µg/mL | EC90 neutralization HUVEC, isolate TM-E28175 [7]: 0.009 µg/mL | EC90 neutralization HUVEC, isolate TM-E28257 [7]: 0.001 µg/mL | fold decrease in susceptibility of escape virus [8]: > 50000 fold | EC50 inhibition of cell-cell fusion [9]: 0.076 µg/mL | fold decrease in susceptibility of escape virus [10]: > 50000 fold | 50% neutralization VR1814, ARPE [11]: < 0.01 µg/mL | 50% neutralization VR1814, MRC-9 [11]: > 2 µg/mL | Kd [12]: 0.31 nM | neutralization of ARPE infection, isolate TM-20749 [13]: 0.01 µg/mL | neutralization of ARPE infection, isolate TM-31354 [13]: 0.028 µg/mL | neutralization of ARPE infection, isolate TM-E5271 [13]: 0.01 µg/mL | neutralization of ARPE infection, isolate TM-E9361 [13]: 0.002 µg/mL | neutralization of ARPE infection, isolate TM-E14953 [13]: 0.012 µg/mL | neutralization of ARPE infection, isolate TM-E19664 [13]: 0.016 µg/mL | neutralization of ARPE infection, isolate TM-E20744 [13]: 0.01 µg/mL | neutralization of ARPE infection, isolate TM-E28175 [13]: 0.006 µg/mL | neutralization of ARPE infection, isolate TM-E28257 [13]: 0.009 µg/mL | 90% neutralization VR1814, ARPE [14]: 0.0015 µg/mL | 90% neutralization VR1814, MRC-9 [14]: > 10 µg/mL | Inhibition of binding (%) [15]: 100% | Inhibition of binding (%) [16]: 0% | Inhibition of binding (%) [17]: 100%
